Experimental data: patent US20110038869A1 (Genmab, published 2011)

B1: Antibody 024 (antibody, V domains shown)
VH: QVQLVQSGAEVKKPGASVKVSCKASGYTFTSYGLSWVRQAPGQGLEWMGWISPYNGNTHYAQKLQGRVTMTTDTSTSTAYMDLRSLRSDDTAVYYCARDSAAHGMDVWGQGTTVTVSS
VL: DIQMTQSPSSLSASVGDRVTITCRASQGISSWLAWYQQKPEKAPKSLIYAASSLQSGVPSRFSGSRSGTDFTLTISSLQPEDFATYYCQQYNSYPYTFGQGTKLEIKR
notes: also called HuMab 024
B2: Antibody 020 (antibody, V domains shown)
VH: QVQLVQSGGEVKKPGASVKVSCKTSGYTFTSYGISWVRQAPGQGLEWMGWISAYNGNTKYAQKLQGRLTMTTDTSTTTAYMELRSLRSDDTAVYYCARDSAAHGMDVWGQGTTVTVSS
VL: DIQMTQSPSSLSASVGDRVTITCRASQGISSWLAWYQQKPEKAPKSLIYAASSLQSGVPSRFRGSGSGTDFTLTISSLQPEDFATYYCQQYNSYPYTFGQGTKLEIKR
notes: also called HuMab 020
B3: Antibody 022 (antibody, V domains shown)
VH: QVQLVQSGAEVKKPGASVKVSCKASGYTFTSYGLSWVRQAPGQGLEWMGWISPYNGNTHYAQKLQGRVTMTTDTSTSTADMDLRSLRSDDTAVYYCARASAAHGMDVWGQGTTVTVSS
VL: DIQMTQSPSSLSASVGDRVTITCRASQGISSWLAWYQQKPEKAPKSLIYAASSLQSGVPSRFSGSRSGTDFTLTISSLQPEDFATYYCQQYNSYPYTFGQGTKLEIKR
notes: also called HuMab 022
B4: Antibody 026 (antibody, V domains shown)
VH: QVQLVQSGAEVKKPGASVKVSCKASGYTFTSYGLSWVRQAPGQGLEWMGWISAYNGNTNYAQKLQGRVTMTTDTSTSTAYMDLRSLRSDDTAVYYCARDSAAHGMDVWGQGTTVTVSS
VL: DIQMTQSPSSLSASVGDRVTITCRASQGISSWLAWYQQKPEKAPKSLIYAASSLQSGVPSRFSGSRSGTDFTLTISSLQPEDFATYYCQQYNSYPYTFGQGTKLEIKR
notes: Human antibody; also called HuMab 026
B5: Antibody 028 (antibody, V domains shown)
VH: QVQVVQSGAEVKKPGASVKVSCKTSGYTFTSYGISWVRQAPGQGLEWMGWISAYNGNTKYAQKLQGRLTMTTDTSTTTAYMELRSLRSDDTAVYYCARDSAAHGMDVWGQGTTVSVSS
VL: DIQMTQSPSSLSASVGDRVTITCRASQGISSWLAWYQQKPEKAPKSLIYAASSLQSGVPSRFSGSRSGTDFTLTISSLQPEDFATYYCQQYNSYPYTFGQGTKLEIKR
notes: List 1 gives no VL for antibody 028; The VL is therefore uncertain; also called HuMab 028
B6: Antibody 038 (antibody, human IgG1, V domains shown)
VH: QVQLVESGGGVVQPGRSLRLSCAASGFTFSTYGMHWVRQAPGKGLEWVAVISHDGSDKYYADSVKGRFTISRDNSKNTLYLQMNSLRAEDTAVYYCARDQSIIETFDYWGQGTLVTVSS
VL: EIVLTQSPATLSLSPGERATLSCRASQSVSSYLAWYQQKPGQAPRLLIYDASNRATGIPARFSGSGSGTDFTLTISSLEPEDFAVYYCQQRSNWGFTFGPGTKVDIKR
notes: Human antibody; also called HuMab 038

What was measured:
[1] = target: T1, biotinylated CD32bECDHis (human, UniProt P31994 43-223, limits assumed, biotinylated (sites not given)); assay: competition ELISA, competitor 038
T1 sequence (looked up): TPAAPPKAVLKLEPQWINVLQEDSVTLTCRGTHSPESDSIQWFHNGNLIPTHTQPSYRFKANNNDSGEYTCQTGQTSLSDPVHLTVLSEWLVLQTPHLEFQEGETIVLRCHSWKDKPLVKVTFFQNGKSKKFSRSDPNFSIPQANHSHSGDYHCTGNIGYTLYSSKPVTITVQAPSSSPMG
Method: (§1) ELISA wells were coated overnight at 4° C. with anti-CD32b HuMabs serially diluted in PBS. The ELISA wells were washed with PBS, blocked for one hour at room temperature with 2% (v/v) chicken serum (Gibco, Paisley, Scotland) in PBS and washed again with PBS. Subsequently, the immobilized antibodies were incubated with biotinylated CD32bECDHis serially diluted in PBSTC. After washing with PBS/Tween, bound biotinylated CD32bECDHis was incubated with Streptavidin-poly-HRP (Sanquin, Amsterdam, The Netherlands) for 1 hr at RT an the reaction was developed as described supra.
(§2) To this end, ELISA wells coated with anti-CD32b HuMabs were incubated in the presence of an excess of CD32b-specific antibody and the predetermined concentration of biotinylated CD32bECDHis in fluid phase. The reaction was developed as described.

[2] = target: T2, full length CD32a on stably transfected IIA1.6 cells (human, UniProt P12318 34-317); assay: flow cytometry on IIA1.6 cells expressing full length CD32a, PE anti-human IgG, MFI
T2 construct: whole, on cells; also called IIA1.6-CD32a; CD32a-expressing IIA1.6 cells
T2 sequence (looked up): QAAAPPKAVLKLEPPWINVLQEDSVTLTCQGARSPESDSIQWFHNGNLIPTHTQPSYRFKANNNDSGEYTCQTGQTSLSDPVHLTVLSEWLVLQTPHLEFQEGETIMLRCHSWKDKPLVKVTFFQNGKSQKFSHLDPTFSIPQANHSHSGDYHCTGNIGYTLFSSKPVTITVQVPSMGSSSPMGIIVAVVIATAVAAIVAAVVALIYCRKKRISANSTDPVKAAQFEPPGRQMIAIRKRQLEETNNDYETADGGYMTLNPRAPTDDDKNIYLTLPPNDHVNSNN
Method: (§3) After harvesting and counting, IIA1.6 cells stably transfected with full length CD32a and CD32b (van den Herik-Oudijk et al., 1994), control IIA1.6 cells and Daudi-luc cells were resuspended in PBS (1×10⁶ cells/ml). Cells were put in 96-well V-bottom plates (100 μl/well) and washed twice with FACS buffer (PBS supplemented with 0.1% BSA and 0.02% Na-azide). Thereafter, 50 μl of serially diluted HuMab in FACS buffer was added to the cells and incubated for 30 minutes at 4° C. After washing three times with FACS buffer, 50 μl of phycoerythrin (PE)-conjugated rabbit anti-human IgG (Jackson ImmunoResearch Europe), diluted 1:200 in FACS buffer, was added. After 30 minutes at 4° C. (in the dark), cells were washed three times, and specific binding of the HuMabs was detected by flow cytometry on a FACSCalibur (BD Biosciences). […] Binding curves were analyzed using non-linear regression (sigmoidal dose-response with variable slope) using GraphPad Prism V4.03 software (GraphPad Software, San Diego, Calif., USA).

[3] = target: T3, full length CD32b2 on transfected IIA1.6 cells (human, UniProt P31994-2 43-291); assay: flow cytometry on IIA1.6-CD32b2 cells
T3 construct: whole, on cells; also called IIA1.6-CD32b2
T3 sequence (looked up): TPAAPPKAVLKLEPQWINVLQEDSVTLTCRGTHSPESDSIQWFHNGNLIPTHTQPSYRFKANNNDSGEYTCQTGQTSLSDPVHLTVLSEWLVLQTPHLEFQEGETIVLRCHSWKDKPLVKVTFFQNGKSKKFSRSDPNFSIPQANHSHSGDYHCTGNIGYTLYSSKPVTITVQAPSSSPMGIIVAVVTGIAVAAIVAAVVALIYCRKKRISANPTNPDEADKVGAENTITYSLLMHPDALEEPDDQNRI
Method: as §3
To analyze binding of anti-CD32b HuMabs to CD32b1 and CD32b2, IIA1.6 cells transfected with full length CD32b1 or CD32b2 (van den Herik-Oudijk et al., 1994) were prepared as described supra. The assay was performed as described supra. Flow cytometry was performed on a FACS Canto II (BD Biosciences).

[4] = target: T4, CD32bECDHis (human, UniProt P31994 43-223, limits assumed); assay: TR-FRET competition against HuMab-KLH-AlexaFluor 647
T4 construct: Produced in HEK-293F cells; also called extracellular domain of CD32b with C-terminal His tag; soluble CD32b
T4 sequence (looked up): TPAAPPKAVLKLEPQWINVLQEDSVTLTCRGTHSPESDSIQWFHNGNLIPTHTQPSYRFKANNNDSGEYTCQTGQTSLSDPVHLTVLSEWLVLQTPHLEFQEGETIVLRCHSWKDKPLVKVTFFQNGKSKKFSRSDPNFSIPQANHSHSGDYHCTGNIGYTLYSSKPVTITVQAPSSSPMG
Source text: To study the interaction of anti-CD32b HuMabs with CD32b and CD32a in more detail TR-FRET technology was applied. To this end, CD32bECDHis and CD32aECDHis were labeled with a fluorescent donor molecule directed against the histidine tag (Anti-6×His Europium3+, PerkinElmer, Boston Mass.).
Briefly, all dilutions were made in 0.5× Lance detection buffer (PerkinElmer, Boston Mass.) supplemented with 0.2% BSA (obtained via dilution of 7.5% BSA Stabilizer solution, cat: CR84-100, PerkinElmer) and 0.03% (v/v) Tween-20 (Riedel de Haen, Seelze, Germany). CD32bECDHis and CD32aECDHis were diluted to 0.5 μg/ml. […] Anti-6×His Europium3+ (PerkinElmer, Boston Mass.) was diluted to 0.15 μg/ml. A 4-fold serial dilution of the tested HuMab antibody was made in a 96 wells non-binding plate (cat. 650261, Greiner Bio-one, Frickenhausen, Germany), ranging from 10 μg/ml-0.04 ng/ml. […] After overnight incubation at 4° C. in the dark, fluorescence was measured using an EnVision 2101 Multilabel reader (PerkinElmer, Boston, Mass.) applying the following settings; Lance/Delfia dual mirror, emission filter 615-665 nm, excitation filter 320 nm, delay time 60 μs, window 100 μs, 100 flashes, 2000 μs per cycle and bidirectional row-by-row reading. Binding curves were analyzed using non-linear regression (sigmoidal dose-response with variable slope) using GraphPad Prism V4.03 software (GraphPad Software, San Diego, Calif., USA).

[5] = target: T1, biotinylated CD32bECDHis; assay: competition ELISA, competitor 022
Method: as §1, §2

[6] = target: T1, biotinylated CD32bECDHis; assay: competition ELISA, competitor 020
Method: as §1, §2

[7] = target: T1, biotinylated CD32bECDHis; assay: competition ELISA, competitor 053
Method: as §1, §2

Row | Binder | % residual binding [1] [%] | binding result [2] | EC50 [3] [nM] | % of maximal Fab-mediated inhibition [4] [%] | IC50 [4] [nM] | % residual binding [5] [%] | % residual binding [6] [%] | % residual binding [7] [%]
1 | B1 | 103 | no binding (tested: about 7e-8 M) | 1.96 | ~70 | 0.45 | 17 | 43 | 69
2 | B2 | 120 | no binding (tested: about 7e-8 M) |  | ~70 | 0.35 | 6 | 20 | 42
3 | B3 | 115 | no binding (tested: about 7e-8 M) |  | ~70 | 0.44 | 14 | 35 | 64
4 | B4 | 127 | no binding (tested: about 7e-8 M) |  | ~70 | 0.3 | 1 | 4 | 29
5 | B5 | 121 | no binding (tested: about 7e-8 M) | 2.18 | ~70 | 0.35 | 6 | 24 | 51
6 | B6 | 17 |  | 0.27 |  | 0.37 | 350 | 310 | 333
